Experimental findings from PMC2796330 (Molecular cell, 2009) are described below.

Where no end group is shown, it is not given here. [ ]: non-standard residue; d: D form. pT = C[C@@H](OP(=O)(O)O)[C@H](N)C(=O)O

For orientation: Kd means the concentration at which binding is half-saturated.

Assay [1] addresses recombinant Nedd4L WW2 domain. The assay is described as follows: ITC.
A further assay deals with Smurf1 WW2 domain. The assay is described as follows: ITC. On the technique in general: In ITC the heat of successive injections is recorded.
Chain of Smurf1 WW2 domain (Q9HCE7 whole entry, the tested form may be a part): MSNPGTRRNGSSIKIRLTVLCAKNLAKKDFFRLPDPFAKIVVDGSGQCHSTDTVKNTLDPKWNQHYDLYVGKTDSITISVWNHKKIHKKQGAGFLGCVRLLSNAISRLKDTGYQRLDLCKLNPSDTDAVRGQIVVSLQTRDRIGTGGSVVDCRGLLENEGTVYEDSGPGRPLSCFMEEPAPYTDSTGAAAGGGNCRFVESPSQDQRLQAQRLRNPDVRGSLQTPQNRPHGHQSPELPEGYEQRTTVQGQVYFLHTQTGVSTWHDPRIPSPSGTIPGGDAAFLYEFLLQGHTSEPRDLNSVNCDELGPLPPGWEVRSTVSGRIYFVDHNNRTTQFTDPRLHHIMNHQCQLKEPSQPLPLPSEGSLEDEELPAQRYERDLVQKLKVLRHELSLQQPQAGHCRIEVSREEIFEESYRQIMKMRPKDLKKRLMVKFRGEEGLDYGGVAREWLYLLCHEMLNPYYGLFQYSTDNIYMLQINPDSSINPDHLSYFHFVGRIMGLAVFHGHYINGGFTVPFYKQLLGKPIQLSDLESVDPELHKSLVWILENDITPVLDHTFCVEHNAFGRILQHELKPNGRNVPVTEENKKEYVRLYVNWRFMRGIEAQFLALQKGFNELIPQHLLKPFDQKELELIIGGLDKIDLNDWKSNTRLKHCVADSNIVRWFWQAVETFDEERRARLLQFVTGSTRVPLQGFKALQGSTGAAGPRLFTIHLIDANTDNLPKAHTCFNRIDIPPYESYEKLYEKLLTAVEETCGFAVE

Chain of recombinant Nedd4L WW2 domain (Q96PU5 whole entry, the tested form may be a part): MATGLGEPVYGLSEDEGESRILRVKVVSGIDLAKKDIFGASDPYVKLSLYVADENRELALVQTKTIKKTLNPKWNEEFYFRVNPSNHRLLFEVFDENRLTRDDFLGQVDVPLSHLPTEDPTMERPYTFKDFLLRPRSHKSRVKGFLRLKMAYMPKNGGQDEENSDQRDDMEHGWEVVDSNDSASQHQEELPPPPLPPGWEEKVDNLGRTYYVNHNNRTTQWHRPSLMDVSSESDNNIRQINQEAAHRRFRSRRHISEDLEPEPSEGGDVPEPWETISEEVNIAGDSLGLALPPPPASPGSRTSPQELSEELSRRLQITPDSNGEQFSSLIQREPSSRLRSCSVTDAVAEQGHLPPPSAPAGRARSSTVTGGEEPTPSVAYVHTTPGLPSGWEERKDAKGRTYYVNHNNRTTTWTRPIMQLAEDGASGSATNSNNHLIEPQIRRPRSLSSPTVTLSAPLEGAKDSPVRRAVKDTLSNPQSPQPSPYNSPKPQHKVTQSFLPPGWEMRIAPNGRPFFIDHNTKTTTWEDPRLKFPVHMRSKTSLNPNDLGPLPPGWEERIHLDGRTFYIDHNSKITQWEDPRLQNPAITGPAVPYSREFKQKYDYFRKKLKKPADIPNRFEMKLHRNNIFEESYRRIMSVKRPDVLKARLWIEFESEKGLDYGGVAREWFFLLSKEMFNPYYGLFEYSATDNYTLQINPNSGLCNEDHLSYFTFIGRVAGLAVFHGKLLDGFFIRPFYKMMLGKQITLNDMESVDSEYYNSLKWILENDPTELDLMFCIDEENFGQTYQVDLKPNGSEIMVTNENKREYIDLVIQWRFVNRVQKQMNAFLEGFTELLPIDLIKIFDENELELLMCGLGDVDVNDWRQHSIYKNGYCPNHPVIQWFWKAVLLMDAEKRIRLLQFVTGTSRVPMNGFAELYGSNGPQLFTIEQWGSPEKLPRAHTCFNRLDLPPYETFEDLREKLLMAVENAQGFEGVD

Take IPE[pT]PPPGYISED [Smad2 pT-PY motif peptide (phosphothreonine)]: the dissociation constant (Kd) in assay [1] is 7.8 µM.

Molecule PADTPPPAYLPPE [Smad1 T-PY motif peptide] had a Kd in the assay with Smurf1 WW2 domain of 32 µM.

On to IPE[pT]PPPGYLSED [Smad3 pT-PY motif peptide (phosphothreonine)], for which the Kd in the assay with Smurf1 WW2 domain worked out at 36 µM; in assay [1], 4.1 µM.
